Measured values from paper PMC3337327, “Crystal structures from the Plasmodium peroxiredoxins: new insights into oligomerization and product binding” (BMC Structural Biology, 2012).

Assays:
[1] = molecular target: Plasmodium knowlesi thioredoxin peroxiredoxin 1 (PkTrx-Px1), full-length His6-tagged construct (P. knowlesi H); assay: LC-MS-TOF mass spectrometry; purified enzyme as isolated, without reducing agent; Agilent LC-MS-TOF, positive ion mode, desalted on a Poroshell 300-SB-C3 column; shows the covalent (disulfide-linked) dimer
[2] = molecular target: Plasmodium yoelii thioredoxin peroxiredoxin 1 (PyTrx-Px1), full-length His6-tagged construct (P. yoelii 17XNL); assay: as above
[3] = molecular target: Plasmodium vivax thioredoxin peroxiredoxin 1 (PvTrx-Px1), full-length His6-tagged construct (P. vivax Salvador I); assay: crystal structure; PvTrx-Px1_ox, His6-tag intact, 8 mg/mL in 10 mM HEPES pH 7.5, 500 mM NaCl; 5% PEG 4K, NaAc pH 4.6, 18 C; 2.5 A
[4] = molecular target: Plasmodium vivax thioredoxin peroxiredoxin 1 (PvTrx-Px1), full-length His6-tagged construct (P. vivax Salvador I); assay: LC-MS-TOF mass spectrometry; purified enzyme as isolated, without reducing agent; Agilent LC-MS-TOF, positive ion mode, desalted on a Poroshell 300-SB-C3 column; shows the covalent (disulfide-linked) dimer
[5] = molecular target: Plasmodium vivax thioredoxin peroxiredoxin 1 (PvTrx-Px1), full-length His6-tagged construct (P. vivax Salvador I); assay: crystal structure; PvTrx-Px1_red, His6-tag intact, protein treated with 5 mM TCEP; 19% PEG 3350, 150 mM lithium citrate, 18 C; 2.45 A
[6] = molecular target: Plasmodium yoelii thioredoxin peroxiredoxin 1 with a 6-residue N-terminal truncation (PyTrx-Px1: Q7-L195) (P. yoelii 17XNL); assay: crystal structure; PyTrx-Px1_ox, His6-tag intact, 4.3 mg/mL; 1.6 M ammonium sulfate, 100 mM HEPES pH 6.8, 200 mM NaAc, 20 mM NaBr, 5% ethylene glycol, 18 C; 2.3 A
[7] = molecular target: Plasmodium yoelii thioredoxin peroxiredoxin 1 with a 6-residue N-terminal truncation (PyTrx-Px1: Q7-L195) (P. yoelii 17XNL); assay: LC-MS-TOF mass spectrometry; purified enzyme as isolated, without reducing agent; Agilent LC-MS-TOF, positive ion mode, desalted on a Poroshell 300-SB-C3 column; shows the covalent (disulfide-linked) dimer
[8] = molecular target: Plasmodium yoelii 1-Cys peroxiredoxin of the Prx6 subfamily (PyPrx6), full-length His6-tagged construct (P. yoelii 17XNL); assay: crystal structure; PyPrx6-SO2H with glycerol bound, His6-tag intact, 15 mg/mL; 23% PEG 3350, 0.1 M Bis-Tris pH 5.5, 200 mM (NH4)2SO4, 5% ethylene glycol, 20 C; 2.3 A
[9] = molecular target: Plasmodium yoelii 1-Cys peroxiredoxin of the Prx6 subfamily (PyPrx6), full-length His6-tagged construct (P. yoelii 17XNL); assay: SEC; calibrated Superdex S200 gel filtration column, 10 mM HEPES pH 7.4, 500 mM NaCl; PyPrx6 eluted at 220 mL
[10] = molecular target: the molecule itself; assay: LC-MS-TOF mass spectrometry; purified enzyme as isolated, without reducing agent; Agilent LC-MS-TOF, positive ion mode, desalted on a Poroshell 300-SB-C3 column; shows the covalent (disulfide-linked) dimer

Plasmodium knowlesi thioredoxin peroxiredoxin 1 (PkTrx-Px1), full-length His6-tagged construct (enzyme)
stoichiometry N [1]: 2

Plasmodium yoelii thioredoxin peroxiredoxin 1 (PyTrx-Px1), full-length His6-tagged construct (enzyme)
stoichiometry N [2]: 2

Plasmodium vivax thioredoxin peroxiredoxin 1 (PvTrx-Px1), full-length His6-tagged construct (enzyme)
stoichiometry N [3]: 10
stoichiometry N [4]: 2
stoichiometry N [5]: 10

Plasmodium yoelii thioredoxin peroxiredoxin 1 with a 6-residue N-terminal truncation (PyTrx-Px1: Q7-L195) (domain or fragment)
stoichiometry N [6]: 8
stoichiometry N [7]: 2

Plasmodium yoelii 1-Cys peroxiredoxin of the Prx6 subfamily (PyPrx6), full-length His6-tagged construct (enzyme)
stoichiometry N [8]: 2
stoichiometry N [9]: 2

B1: Plasmodium falciparum thioredoxin peroxiredoxin 1 (PfTrx-Px1), full-length His6-tagged construct (enzyme, P. falciparum 3D7, UniProt Q8IL80 1-195, looked up)
chain: MASYVGREAPYFKAEAVFADNTFGEVNLHDFIGKKYVLLYFYPLDFTFVCPSEIIALDKALDAFKERNVELIGCSVDSKYTHLAWKKTPLTKGGIGNIQHTLISDITKSISRSYNVLFGDSVSLRAFVLIDKQGVVQHLLVNNLAIGRSVEEVLRIIDAVQHHEQHGDVCPANWKKGKVAMKPSEEGVSEYLSKL
modifications: intermolecular disulfide between the peroxidatic and resolving cysteines (C50, C170) in the enzyme as purified
notes: thioredoxin peroxiredoxin 1 (Trx-Px1, 2-Cys Prx, Prx1 subfamily), P. falciparum 3D7, PlasmoDB PF14_0368, full length; N-terminal Met of the tag is clipped in E. coli; also called Trx-Px1 from P. falciparum
stoichiometry N [10]: 2
